Test results reported in patent publication US7794719 (dated 2010).
Substitutions are numbered along the chain they refer to. Read-outs that look alike come from different tables or passages of the source.

B1: MS-R 7.4H2 x 7.12L2 Fab (antibody, V domains shown)
VH: QLVESGGGLVQPGGSLRLSCAASGFTFSSYAMSWVRQAPGKGLEWVSAINYNGARIYYADSVKGRFTISRDNSKNTLYLQMNSLRAEDTAVYYCARGKGNTHKPYGYVRYFDVWGQGTLVTVSS
VL: DIVLTQSPATLSLSPGERATLSCRASQRFFYKYLAWYQQKPGQAPRLLISGSSNRATGVPARFSGSGSGTDFTLTISSLEPEDFAVYYCLQLYNIPNTFGQGTKVEIKR
B2: MS-R 7.9H2 x 7.12L2(L1+2) Fab (antibody, V domains shown)
VH: B1 VH with Y51A, N52D, A54N, I56K
VL: B1 VL
B3: MS-R 7.9H2 x 7.12L1 Fab (antibody, V domains shown)
VH: B1 VH with Y51A, N52D, A54N, I56K
VL: B1 VL with R28Y, F29V, Y31R, K32R
B4: MS-R 8.2L1 Fab (antibody, V domains shown)
VH: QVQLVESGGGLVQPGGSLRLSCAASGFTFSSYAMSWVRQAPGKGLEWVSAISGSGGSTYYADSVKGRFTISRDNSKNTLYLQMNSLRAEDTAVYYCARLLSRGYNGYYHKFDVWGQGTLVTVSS
VL: DIVLTQSPATLSLSPGERATLSCRASQRVSGRYLAWYQQKPGQAPRLLIYGASSRATGVPARFSGSGSGTDFTLTISSLEPEDFATYYCQQLSSYPPTFGQGTKVEIKR
B5: MS-R 3.4L9 Fab (antibody, V domains shown)
VH: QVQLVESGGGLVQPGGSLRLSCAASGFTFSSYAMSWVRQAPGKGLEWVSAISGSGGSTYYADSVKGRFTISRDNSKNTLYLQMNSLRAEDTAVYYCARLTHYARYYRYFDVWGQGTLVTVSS
VL: B4 VL with Q27R, V29I, S30H, G31V, R32Y, L92T, S93Y, S94D
B6: MS-R 3.4L7 Fab (antibody, V domains shown)
VH: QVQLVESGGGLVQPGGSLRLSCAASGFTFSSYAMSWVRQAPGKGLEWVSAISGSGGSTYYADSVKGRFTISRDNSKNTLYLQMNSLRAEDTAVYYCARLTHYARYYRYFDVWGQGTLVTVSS
VL: B4 VL with V29L, S30G, G31R, R32L, L92T, S93Y, S94D
B7: MS-R 3.6L2 Fab (antibody, V domains shown)
VH: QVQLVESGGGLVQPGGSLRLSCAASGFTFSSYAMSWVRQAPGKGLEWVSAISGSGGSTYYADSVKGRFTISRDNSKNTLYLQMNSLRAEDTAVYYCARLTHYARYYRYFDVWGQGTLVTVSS
VL: B4 VL with R28F, V29L, G31R, R32Y, T86V, L92T, S93Y, S94N
B8: MS-R 3.6H5 x 3.6L2 Fab (antibody, V domains shown)
VH: QLVESGGGLVQPGGSLRLSCAASGFTFSSYAMSWVRQAPGKGLEWVSAISESGKTKYYADSVKGRFTISRDNSKNTLYLQMNSLRAEDTAVYYCARLTHYARYYRYFDVWGQGTLVTVSS
VL: B4 VL with R28F, V29L, G31R, R32Y, T86V, L92T, S93Y, S94N
B9: MS-R 3.4H1 x 3.4L9 Fab (antibody, V domains shown)
VH: B8 VH with S52T, G53S, K54I, T55R
VL: B4 VL with Q27R, V29I, S30H, G31V, R32Y, L92T, S93Y, S94D
B10: MS-R 7.9H7 Fab (antibody, V domains shown)
VH: QVQLVESGGGLVQPGGSLRLSCAASGFTFSSYAMSWVRQAPGKGLEWVSAINASGTRTYYADSVKGRFTISRDNSKNTLYLQMNSLRAEDTAVYYCARGKGNTHKPYGYVRYFDVWGQGTLVTVSS
VL: B4 VL with R28S, G31S, R32S, Q90L, L92I, S93Y, S94N, Y95M, P97I
B11: MS-R 3.4H7 x 3.4L7 Fab (antibody, V domains shown)
VH: B8 VH with A48V, S52T, T55N, K56I
VL: B4 VL with V29L, S30G, G31R, R32L, L92T, S93Y, S94D
B12: MS-R 7.2H2 x 7.2L1 Fab (antibody, V domains shown)
VH: B1 VH with Y51G, N52T, A54M, R55K, I56K
VL: B4 VL with R28Y, S30D, G31R, R32T, L92I, S93Y, Y95F, P97H
B13: MS-R 3.6H5 x 3.6L1 Fab (antibody, V domains shown)
VH: B8 VH
VL: B4 VL with R28F, V29I, S30Q, G31R, R32F, T86V, L92T, S93Y, S94N
B14: MS-R 3.4H3 x 3.4L9 Fab (antibody, V domains shown)
VH: B8 VH with A48V, E51Q, S52T, K54R, T55K, K56I
VL: B4 VL with Q27R, V29I, S30H, G31V, R32Y, L92T, S93Y, S94D
B15: MS-R 7.11H1 x 7.2L1 Fab (antibody, V domains shown)
VH: B1 VH with A48G, Y51A, N52A, A54F, I56T
VL: B4 VL with R28Y, S30D, G31R, R32T, L92I, S93Y, Y95F, P97H
B16: MS-R 7.9H2 Fab (antibody, V domains shown)
VH: B1 VH with Y51A, N52D, A54N, I56K
VL: B4 VL with R28S, G31S, R32S, Q90L, L92I, S93Y, S94N, Y95M, P97I
B17: MS-R 7 Fab (antibody, V domains shown)
VH: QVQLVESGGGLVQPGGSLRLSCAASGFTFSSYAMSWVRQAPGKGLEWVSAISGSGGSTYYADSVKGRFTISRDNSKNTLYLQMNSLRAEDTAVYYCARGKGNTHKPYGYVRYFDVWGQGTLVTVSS
VL: B4 VL with R28S, G31S, R32S, Q90F, S93Y, Y95D, P97F
B18: MS-R 7.9H4 Fab (antibody, V domains shown)
VH: B1 VH with Y51A, N52V, A54M, R55K, I56K, Y57F
VL: B4 VL with R28S, G31S, R32S, Q90L, L92I, S93Y, S94N, Y95M, P97I
B19: MS-R 3.4H7 x 3.4L9 Fab (antibody, V domains shown)
VH: B8 VH with A48V, S52T, T55N, K56I
VL: B4 VL with Q27R, V29I, S30H, G31V, R32Y, L92T, S93Y, S94D
B20: MS-R 7.9 Fab (antibody, V domains shown)
VH: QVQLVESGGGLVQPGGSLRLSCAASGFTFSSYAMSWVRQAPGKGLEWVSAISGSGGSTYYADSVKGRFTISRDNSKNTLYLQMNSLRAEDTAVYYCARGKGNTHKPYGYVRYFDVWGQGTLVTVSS
VL: B4 VL with R28S, G31S, R32S, Q90L, L92I, S93Y, S94N, Y95M, P97I
B21: MS-R 7.11L1 Fab (antibody, V domains shown)
VH: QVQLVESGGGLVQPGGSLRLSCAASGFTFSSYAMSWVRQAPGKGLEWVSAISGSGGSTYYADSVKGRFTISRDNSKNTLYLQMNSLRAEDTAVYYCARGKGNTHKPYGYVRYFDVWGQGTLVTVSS
VL: B4 VL with V29I, S30L, G31R, R32I, L92V, S93Y, Y95P, P97H
B22: MS-R 7.4H2 x 7.2L1 Fab (antibody, V domains shown)
VH: B1 VH
VL: B4 VL with R28Y, S30D, G31R, R32T, L92I, S93Y, Y95F, P97H
B23: MS-R 7.11H1 x 7.11L1 Fab (antibody, V domains shown)
VH: B1 VH with A48G, Y51A, N52A, A54F, I56T
VL: B4 VL with V29I, S30L, G31R, R32I, L92V, S93Y, Y95P, P97H
B24: MS-R 7.11.H1 x 7.2.L1 IgG1 (antibody, V domains shown)
VH: B1 VH with A48G, Y51A, N52A, A54F, I56T
VL: B4 VL with R28Y, S30D, G31R, R32T, L92I, S93Y, Y95F, P97H
B25: MS-R 7.11H2 x 7.9L1(L1) Fab (antibody, V domains shown)
VH: B1 VH with Y51A, A54Y, R55K, I56K
VL: B4 VL with V29L, G31P, Q90L, L92I, S93Y, S94N, Y95M, P97I
B26: MS-R 7.2L1 Fab (antibody, V domains shown)
VH: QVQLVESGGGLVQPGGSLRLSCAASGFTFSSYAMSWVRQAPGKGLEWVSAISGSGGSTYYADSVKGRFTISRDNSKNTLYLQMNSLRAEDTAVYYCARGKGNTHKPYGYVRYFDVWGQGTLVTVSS
VL: B4 VL with R28Y, S30D, G31R, R32T, L92I, S93Y, Y95F, P97H
B27: MS-R 8.1H1 x 8.2L1 Fab (antibody, V domains shown)
VH: QLVESGGGLVQPGGSLRLSCAASGFTFSSYAMSWVRQAPGKGLEWVSAISRSGSNIYYADSVKGRFTISRDNSKNTLYLQMNSLRAEDTAVYYCARLLSRGYNGYYHKFDVWGQGTLVTVSS
VL: B4 VL
B28: MS-R 7.9H2 x 7.2L1(L1) Fab (antibody, V domains shown)
VH: B1 VH with Y51A, N52D, A54N, I56K
VL: B4 VL with R28Y, S30D, G31R, R32T, L92I, S93Y, Y95F, P97H
B29: MS-R 7.11H2 x 7.2L1(L1) Fab (antibody, V domains shown)
VH: B1 VH with Y51A, A54Y, R55K, I56K
VL: B4 VL with R28Y, S30D, G31R, R32T, L92I, S93Y, Y95F, P97H
B30: MS-R 3.4H3 x 3.4L7 Fab (antibody, V domains shown)
VH: B8 VH with A48V, E51Q, S52T, K54R, T55K, K56I
VL: B4 VL with V29L, S30G, G31R, R32L, L92T, S93Y, S94D
B31: MS-R 3.6L1 Fab (antibody, V domains shown)
VH: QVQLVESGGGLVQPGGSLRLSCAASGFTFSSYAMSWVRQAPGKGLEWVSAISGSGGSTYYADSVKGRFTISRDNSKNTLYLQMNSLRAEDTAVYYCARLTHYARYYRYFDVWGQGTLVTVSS
VL: B4 VL with R28F, V29I, S30Q, G31R, R32F, T86V, L92T, S93Y, S94N
B32: MS-R 3.3H1 x 3.4L9 Fab (antibody, V domains shown)
VH: B8 VH with A48V, S52K, G53S, K54R, T55F, K56I
VL: B4 VL with Q27R, V29I, S30H, G31V, R32Y, L92T, S93Y, S94D

What was measured:
Assay in all cases: SPR
Aβ1-40 fibers [1] = target: Aβ1-40 fibers (human)
Aβ1-42 fibers [2] = target: Aβ1-42 fibers (human)
Aβ1-40 fibers [3] = target: Aβ1-40 fibers (human); remark: listed apart in the source
Aβ1-42 fibers [4] = target: Aβ1-42 fibers (human); remark: listed apart in the source
Aβ1-40 fibers [5] = target: Aβ1-40 fibers (human); remark: listed apart in the source
Aβ1-42 fibers [6] = target: Aβ1-42 fibers (human); remark: listed apart in the source
Aβ1-40 fibers [7] = target: Aβ1-40 fibers (human); remark: listed apart in the source
Aβ1-42 fibers [8] = target: Aβ1-42 fibers (human); remark: listed apart in the source

Binder | Kd (Aβ1-40 fibers [1]) [nM] | Kd (Aβ1-42 fibers [2]) [nM] | Kd (Aβ1-40 fibers [3]) [nM] | Kd (Aβ1-42 fibers [4]) [nM] | further results
B1 | 1.4 | 1.8 |  |  | 
B2 | 0.4 | 0.4 |  |  | 
B3 | 1.2 | 1.1 |  |  | 
B4 |  |  | 4.8 | 3.7 | 
B5 |  |  | 16.3 | 9.1 | 
B6 |  |  | 9.3 | 9.3 | 
B7 |  |  | 13.7 | 13.1 | 
B8 | 1.26 | 0.84 |  |  | 
B9 | 0.25 | 0.5 |  |  | 
B10 |  |  | 1 | 0.9 | 
B11 | 1.19 | 1.23 |  |  | 
B12 | 1.29 | 1.43 |  |  | 
B13 | 1.25 | 1.04 |  |  | 
B14 | 1.05 | 0.93 |  |  | 
B15 | 1.75 | 1.39 |  |  | 
B16 |  |  | 5 | 5.7 | 

Binder | Kd (Aβ1-40 fibers [1]) [nM] | Kd (Aβ1-42 fibers [2]) [nM] | Kd (Aβ1-40 fibers [3]) [nM] | Kd (Aβ1-42 fibers [4]) [nM] | further results
B17 |  |  | 1100 | 1710 | 
B18 |  |  | 4.8 | 4.2 | 
B19 | 2.66 | 3.51 |  |  | 
B20 |  |  | 31 | 93 | 
B21 |  |  | 1.1 | 1.2 | 
B22 | 1.4 | 1.4 |  |  | 
B23 | 0.41 | 0.47 |  |  | 
B24 |  |  |  |  | Kd (Aβ1-40 fibers [5]): 0.66 nM; Kd (Aβ1-42 fibers [6]): 0.15 nM; Kd (Aβ1-40 fibers [7]): 0.14 nM; Kd (Aβ1-42 fibers [8]): 0.67 nM
B25 | 0.1 | 1 |  |  | 
B26 |  |  | 13.3 | 12.7 | 
B27 | 1.3 | 1.6 |  |  | 
B28 | 1.4 | 1.4 |  |  | 
B29 | 1 | 0.6 |  |  | 
B30 | 0.92 | 0.92 |  |  | 
B31 |  |  | 15.6 | 11.1 | 
B32 | 2.16 | 2.97 |  |  | 
